What was measured:
Format in all cases: in vivo, Sprague-Dawley rats
Conditions in all cases: rat, 7.4 nmol
[1] = Sublingual administration of 125I-IGF-I, tissue distribution by gamma counting
Method: Male Sprague-Dawley rats, 200-310 grams, were anesthetized with intraperitoneal pentobarbital (40 mg/kg). Drug delivery to the brain and spinal cord was assessed after sublingual administration of 7.4 nmol of ^125I-IGF-I in phosphate buffered saline, pH 7.4. Rats were placed in on their bellies with posterior elevated and mouth lowered. ^125I-IGF-I (7.4 nmol) on a small strip of filter paper was placed under the tongue. Such methods for sublingual administration are known in the art. Purushotham et al. Am J. Physiol. 269,G867-G873 (1995). Rats subsequently underwent perfusion-fixation within minutes following the completion of ^125I-IGF-I administration. Perfusion-fixation was performed with 50-100 ml physiologic saline followed by 500 ml of fixative containing 1.25% glutaraldehyde and 1% paraformaldehyde in 0.1 M Sorenson's phosphate buffer, pH 7.4, prior to dissection and ^125I measurement by gamma counting. Areas dissected included selected brain regions as well as the cervical, thoracic and sacral regions of the spinal cord.

[2] = Conjunctival administration (lower eyelid) of 125I-IGF-I, tissue distribution by gamma counting
[3] = Transdermal administration (skin of the face) of 125I-IGF-I, tissue distribution by gamma counting
Method: Male Sprague-Dawley rats, 200-310 grams, are anesthetized with intraperitoneal pentobarbital (40 mg/kg). Drug delivery to the brain and spinal cord was assessed after transdermal administration of 7.4 nmol of ^125I-IGF-I in phosphate buffered saline, pH 7.4. Rats are placed in on their bellies with posterior elevated and mouth lowered. ^125I-IGF-I (7.4 nmol) placed on the skin of the rat's face. Rats subsequently underwent perfusion-fixation within minutes following the completion of ^125I-IGF-I administration. Perfusion-fixation was performed with 50-100 ml physiologic saline followed by 500 ml of fixative containing 1.25% glutaraldehyde and 1% paraformaldehyde in 0.1 M Sorenson's phosphate buffer, pH 7.4, prior to dissection and ^125I measurement by gamma counting. Areas dissected included selected brain regions as well as the cervical, thoracic and sacral regions of the spinal cord.

Substance: 125I-IGF-I: insulin-like growth factor I, a single chain peptide having 70 amino acids and a molecular weight of about 7,600 daltons, radioiodinated
- concentration in meninges or dura surrounding olfactory bulb, dorsal and ventral regions of the brain, trigeminal nerve and upper cervical spinal cord [1]: High concentrations
- concentration in the trigeminal nerve itself [1]: high concentrations
- presence in the olfactory bulb, spinal cord and brain stem [1]: found
- concentration of neurologic agent in spinal cord regions (comparison) ([1]; cervical, thoracic, lumbar or sacral regions): higher in the cervical region of the spinal cord than in the thoracic region and higher in the thoracic region than in the lumbar or sacral regions
- appearance of neurologic agent in the brain and spinal cord (radioactivity) ([1]; perfusion-fixation within minutes after administration): Rapid appearance
- appearance of neurologic agent in the brain and spinal cord (radioactivity) [2]: Rapid appearance
- appearance of neurologic agent in the brain and spinal cord (radioactivity) [3]: Rapid appearance
